T1: cynomolgus monkey CD40 on cells (cynomolgus monkey, UniProt P25942 21-277 (human entry))
T1 construct: also called cyno CD40 on HEK293 cells; CD40 on cynomolgus monkey B cells
T1 chain: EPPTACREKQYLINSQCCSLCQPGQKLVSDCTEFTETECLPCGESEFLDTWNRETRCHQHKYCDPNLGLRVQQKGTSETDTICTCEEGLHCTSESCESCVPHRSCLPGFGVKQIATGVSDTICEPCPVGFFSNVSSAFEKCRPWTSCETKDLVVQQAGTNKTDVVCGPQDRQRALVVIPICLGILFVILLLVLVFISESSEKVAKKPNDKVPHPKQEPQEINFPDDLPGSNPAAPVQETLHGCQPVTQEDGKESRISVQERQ

T2: human TNFR14 (human, UniProt Q92956 39-283)
T2 construct: whole, on cells
T2 sequence (looked up): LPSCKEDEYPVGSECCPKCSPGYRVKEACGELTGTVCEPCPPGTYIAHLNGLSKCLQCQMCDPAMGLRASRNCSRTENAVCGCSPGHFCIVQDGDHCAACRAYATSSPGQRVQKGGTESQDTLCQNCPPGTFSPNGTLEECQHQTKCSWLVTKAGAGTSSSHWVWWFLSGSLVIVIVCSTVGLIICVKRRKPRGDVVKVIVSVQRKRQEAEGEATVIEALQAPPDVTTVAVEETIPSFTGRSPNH

T3: human TNFR2 (human, UniProt P20333 23-461)
T3 construct: whole, on cells
T3 sequence (looked up): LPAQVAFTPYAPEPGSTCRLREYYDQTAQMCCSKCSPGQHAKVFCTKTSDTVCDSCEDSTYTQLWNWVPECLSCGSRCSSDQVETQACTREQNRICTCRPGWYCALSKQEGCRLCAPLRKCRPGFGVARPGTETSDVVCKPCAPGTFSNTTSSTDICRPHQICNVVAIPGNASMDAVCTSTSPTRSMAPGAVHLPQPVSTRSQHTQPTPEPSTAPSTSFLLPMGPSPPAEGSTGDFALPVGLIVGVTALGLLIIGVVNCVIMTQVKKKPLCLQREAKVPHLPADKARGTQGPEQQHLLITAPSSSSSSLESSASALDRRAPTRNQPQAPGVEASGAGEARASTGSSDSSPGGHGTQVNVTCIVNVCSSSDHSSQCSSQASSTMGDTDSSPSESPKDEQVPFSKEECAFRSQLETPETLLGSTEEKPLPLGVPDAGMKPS

T4: human TNFR1 (human, UniProt P19438 30-455)
T4 construct: whole, on cells
T4 sequence (looked up): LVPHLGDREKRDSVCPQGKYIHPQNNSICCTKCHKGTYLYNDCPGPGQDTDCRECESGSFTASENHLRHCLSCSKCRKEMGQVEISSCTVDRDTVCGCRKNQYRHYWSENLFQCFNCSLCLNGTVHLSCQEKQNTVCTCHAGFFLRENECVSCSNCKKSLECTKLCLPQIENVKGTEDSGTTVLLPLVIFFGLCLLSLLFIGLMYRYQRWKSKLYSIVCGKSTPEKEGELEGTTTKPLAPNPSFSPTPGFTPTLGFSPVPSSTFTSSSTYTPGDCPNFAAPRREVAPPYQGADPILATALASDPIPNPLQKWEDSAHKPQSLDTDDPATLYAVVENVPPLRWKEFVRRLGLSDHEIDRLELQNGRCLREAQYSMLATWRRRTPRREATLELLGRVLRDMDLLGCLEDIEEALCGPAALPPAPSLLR

T5: mouse CD40 on cells (mouse, UniProt P27512 20-289)
T5 construct: whole, on cells; also called mouse CD40 on HEK293 cells; CD40 on mouse B cells
T5 sequence (looked up): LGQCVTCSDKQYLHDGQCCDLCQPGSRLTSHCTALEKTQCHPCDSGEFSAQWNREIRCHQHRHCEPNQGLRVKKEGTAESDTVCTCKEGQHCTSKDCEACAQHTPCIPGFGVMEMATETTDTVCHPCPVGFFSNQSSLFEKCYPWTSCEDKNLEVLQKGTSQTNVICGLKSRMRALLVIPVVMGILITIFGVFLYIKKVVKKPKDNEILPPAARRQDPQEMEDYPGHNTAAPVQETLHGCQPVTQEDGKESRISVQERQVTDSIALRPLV


Tests used:
[1] = target: T1, cynomolgus monkey CD40 on cells; assay: flow cytometry, HEK293 transfectants vs control cells
Procedure: (§1) The binding affinity of anti-human CD40 antibodies to human and cynomolgus monkey CD40 was measured by Octet assay (Table 3), quantifying association rate (Kon), disassociation rate (Kdis), and equilibrium binding constant (KD). Cross-reactivity of anti-CD40 antibodies to related TNF receptor superfamily (TNFRSF) members was evaluated by expressing human TNFR1, TNFR2, TNFR10, or TNFR14 on HEK293 cells by transient transfection of expression vectors encoding these genes. Binding of indicated anti-human CD40 antibody to these transfected cells was determined by flow cytometry. […] Cross-reactivity of anti-CD40 antibodies to cynomolgus monkey and mouse CD40 was evaluated by expressing cynomolgus monkey or mouse CD40 on HEK293 cells by transient transfection of expression vectors encoding these genes. Binding of indicated anti-human CD40 antibody to cells overexpressing cynomolgus monkey and mouse CD40 was determined by flow cytometry.

[2] = target: T6, human TNFR10 (human); assay: as above
T6 construct: whole, on cells; Name as printed is ambiguous (TNFRSF10A-D)
Procedure: as §1

[3] = target: T2, human TNFR14; assay: as above
Procedure: as §1

[4] = target: T3, human TNFR2; assay: as above
Procedure: as §1

[5] = target: T4, human TNFR1; assay: as above
Procedure: as §1

[6] = target: T5, mouse CD40 on cells; assay: as above
Procedure: as §1

[7] = target: T7, human CD40 on cells (human, UniProt P25942 21-277); assay: cell-based or functional assay
[8] = target: human CD40 (human, UniProt P25942 21-193, limits assumed); assay: Octet
Procedure: as §1

[9] = target: T7, human CD40 on cells; assay: flow cytometry, labelled CD40L on CD40-293T cells, antibody at 2.5 ug/ml
Procedure: Percent ligand binding inhibition was calculated as [(CD40L binding gMFI in the absence of anti-CD40)−(CD40L binding gMFI in the presence of anti-CD40)]/(CD40L binding gMFI in the absence of anti-CD40). gMFI: geometric mean fluorescent intensity. All anti-CD40 antibodies show minimal effects on the ability of CD40L to bind to the CD40 receptor (Table 7).
Target sequence in this assay (P25942 21-277 limits assumed): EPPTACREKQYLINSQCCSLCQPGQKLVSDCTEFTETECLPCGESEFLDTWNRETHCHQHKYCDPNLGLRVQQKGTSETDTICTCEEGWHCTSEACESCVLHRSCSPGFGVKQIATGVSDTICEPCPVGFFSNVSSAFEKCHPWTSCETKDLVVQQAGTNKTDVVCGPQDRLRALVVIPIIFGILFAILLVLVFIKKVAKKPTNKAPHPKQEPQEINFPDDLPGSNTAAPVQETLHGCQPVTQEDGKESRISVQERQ

Sequence of human CD40 (P25942 21-193 limits assumed): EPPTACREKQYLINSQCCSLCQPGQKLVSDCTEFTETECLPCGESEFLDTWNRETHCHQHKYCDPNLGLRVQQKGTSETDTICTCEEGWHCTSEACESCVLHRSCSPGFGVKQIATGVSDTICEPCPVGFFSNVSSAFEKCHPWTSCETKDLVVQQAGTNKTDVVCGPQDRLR

Binder | fold over control (gMFI) [1] | fold over control (gMFI) [2] | fold over control (gMFI) [3] | fold over control (gMFI) [4] | fold over control (gMFI) [5] | fold over control (gMFI) [6] | human B cell proliferation, no crosslinking, EC50 [7] | human B cell proliferation, no crosslinking, Max Fold Change [7] | human B cell proliferation, with protein G crosslinking, EC50 [7] | human B cell proliferation, with protein G crosslinking, Max Fold Change [7] | Kd [8] | koff [8] | kon [8] | Ligand Binding Inhibition (%) [9]
4G7 (antibody, IgG4, V domains shown, also called 4869-1) VH: QVQLVQSGAEVKKPGASVKVSCKASGYTFAGYYMHWVRQAPGQGLEWMGWINPDSGGTNFAQQFQGRVTMTRDTSISTAYMEVSRLRSDDTAVFYCAREKITMTGIYFDYWGQGTLVTVSS VL: DIQMTQSPSSLSASVGDILTITCRASQNITTYLNWYQQKPGKAPNLLISAASRLRSGVPSRFSGSGSGTDFTLTISSLQPVDFTTFYCQQTFTTPWTFGQGTKVEIKR | 57 fold | 0.87 fold | 0.89 fold | 0.9 fold | 0.97 fold | 0.9 fold | > 16.7 nM | 1.19 fold | 0.43 nM | 18.1 fold | 0.88 nM | 0.00108 s⁻¹ | 1.23e+06 M⁻¹ s⁻¹ | 21%
30A12 (antibody, IgG4, V domains shown, also called 4878-1) VH: EVQLLESGGGLVQPGGSLRLSCAASGFTFSRNAMSWVRQAPGKGLEWVSATGGSGISTYYADSVKGRFTISRDNSKNTLYLQMNSLRAEDTAVYYCARGYSNSWWYFDYWGQGTLVTVSS VL: QSALTQPASVSGSPGQSITISCTGTSSDVGNYNLVSWYQQHPGKAPKLMIFEVNQRPSGVSNRFSGSKSGTTASLTISGLQAADEADYFCCSYTTSSTYVIFGGGTKLTVLG | 71 fold | 0.91 fold | 0.96 fold | 0.89 fold | 1.07 fold | 1.3 fold | > 16.7 nM | 1.45 fold | 0.362 nM | 23.8 fold | 0.69 nM | 0.000368 s⁻¹ | 533000 M⁻¹ s⁻¹ | -16%
